Results reported in publication PMC4402133.

Experiments:
Experiment in all cases: native gel or EMSA
[1] = target: pPL-223 nascent chain (bovine) (UniProt P01239)
[2] = target: pPL-163 nascent chain (bovine) (UniProt P01239)
[3] = target: pPL^45-Zn-163 nascent chain (bovine | S. cerevisiae) (UniProt P01239)
[4] = target: pPL-188 nascent chain (bovine) (UniProt P01239)

Substance “RAMP complex C (~500 kD Sec61/62/63 complex) (from UniProt P38377 1-476; P82009 1-39; P82008 1-33; Q05052 33-445)” has a percent of nascent chains in complex C [1] of 5%, a percent of nascent chains in complex C [2] of 2% and a percent of nascent chains retained in complex C after 1 hour at 24°C [2] of 88%. The percent of nascent chains retained in complex C after 1 hour at 24°C [3] was 95% and the percent of nascent chains in complex C [4] was 2%.
